The target in experiment [1] is T1, Mouse TMEM149 on the cell surface (transfected 293T cells; mouse T cells) (mouse, UniProt Q3U4N7 23-345).
T1 construct: also called mTMEM149; murine TMEM149
T1 sequence: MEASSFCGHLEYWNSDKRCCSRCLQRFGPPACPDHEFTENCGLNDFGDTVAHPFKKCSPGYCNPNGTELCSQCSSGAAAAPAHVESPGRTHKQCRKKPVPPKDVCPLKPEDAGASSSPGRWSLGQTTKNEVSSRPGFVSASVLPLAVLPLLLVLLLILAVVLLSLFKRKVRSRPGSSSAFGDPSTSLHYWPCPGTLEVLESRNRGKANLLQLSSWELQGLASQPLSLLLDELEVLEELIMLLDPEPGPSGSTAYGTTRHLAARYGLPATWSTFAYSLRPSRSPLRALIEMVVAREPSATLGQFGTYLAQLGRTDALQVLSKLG
Description: radioligand competition: 125I-FLAG-mIGFL (100 pM) on 293T cells expressing murine TMEM149, unlabelled FLAG-mIGFL varied. The procedure:
(§1) Reference is made to Example 11.
(§2) To determine the affinity of IGFL with TMEM149, ligands were iodinated with ¹²⁵I using the lactoperoxidase method and free ¹²⁵I-Na was removed from the labeled protein by gel filtration using a NAP-5 column. 50 μL competition reaction mixtures containing a fixed concentration of iodinated ligand and decreasing concentrations of serially diluted, unlabeled ligand were placed into 96-well plates in triplicate. To each well, HEK293T cells stably expressing human or mouse TMEM149 were added at a density of 100,000 cells in 0.2 mL of binding buffer (Dulbecco's Modified Eagle Medium with 1% bovine serum albumin, 50 mM HEPES pH 7.2 and 2 mM sodium azide). The final concentration of the iodinated ligand with cells in each competition reaction was 100 pM (100,000 cpms per 0.25 mL). The final concentration of the unlabeled ligand with cells in the competition reaction varied, starting at 500 nM and then decreasing by […] dilution for ten concentrations, and included a zero-added, buffer-only sample. […] The filters were counted on a Wallac Wizard 1470 gamma counter (PerkinElmer Life and Analytical Sciences Inc.; Wellesley, Mass.). The binding data was evaluated using NewLigand software (Genentech), which uses the fitting algorithm of Munson and Robard to determine the binding affinity of the antibody (Munson, P. J., and D. Rodbard. 1980.
For orientation: Loss of bound radioactivity is the signal in a displacement assay; it reports binding, not function.

Experiment [2] addresses T2, DR4 on transfected 293T cells (UniProt O00220 24-468, limits assumed).
T2 construct: whole, on cells
T2 sequence (looked up): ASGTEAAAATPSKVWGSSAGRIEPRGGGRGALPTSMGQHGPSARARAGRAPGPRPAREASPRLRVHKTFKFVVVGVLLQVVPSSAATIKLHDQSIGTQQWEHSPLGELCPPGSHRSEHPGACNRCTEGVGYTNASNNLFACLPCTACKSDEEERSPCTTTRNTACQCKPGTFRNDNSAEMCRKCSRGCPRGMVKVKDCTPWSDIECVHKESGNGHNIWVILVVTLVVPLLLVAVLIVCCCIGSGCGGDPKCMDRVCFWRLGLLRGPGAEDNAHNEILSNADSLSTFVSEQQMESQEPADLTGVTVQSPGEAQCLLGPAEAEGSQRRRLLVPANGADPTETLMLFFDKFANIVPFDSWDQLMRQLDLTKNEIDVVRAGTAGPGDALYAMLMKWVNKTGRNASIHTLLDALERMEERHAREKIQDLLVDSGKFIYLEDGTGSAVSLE
Description: flow cytometry of transfected 293T cells, FLAG-mIGFL detected with fluorescent anti-FLAG. (Flow cytometry measures light scatter and fluorescence of single cells or particles in a stream.)

The target in experiment [3] is T3, nerve growth factor receptor (NGFR) on transfected 293T cells (UniProt P08138 29-427, limits assumed).
T3 construct: whole, on cells
T3 sequence (looked up): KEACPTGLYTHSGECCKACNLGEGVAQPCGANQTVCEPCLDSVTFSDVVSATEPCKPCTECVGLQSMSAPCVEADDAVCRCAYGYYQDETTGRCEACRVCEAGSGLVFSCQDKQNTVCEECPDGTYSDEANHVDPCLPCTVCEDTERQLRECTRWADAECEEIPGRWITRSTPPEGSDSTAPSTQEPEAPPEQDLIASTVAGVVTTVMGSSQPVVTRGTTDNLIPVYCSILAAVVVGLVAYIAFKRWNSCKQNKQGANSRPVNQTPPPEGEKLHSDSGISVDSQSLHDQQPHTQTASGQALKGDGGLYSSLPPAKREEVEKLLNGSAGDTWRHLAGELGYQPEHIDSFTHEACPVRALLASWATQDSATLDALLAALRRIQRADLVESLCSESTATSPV
Described as above.

The target in experiment [4] is T1, Mouse TMEM149 on the cell surface …. Description: radioligand competition assay; 125I-FLAG-mIGFL against unlabelled ligand on 293T cells expressing mouse TMEM149. As for the experimental part:
as §1, §2

Experiment [5] deals with T4, mTMEM149-Fc (mouse TMEM149 extracellular domain with C-terminal human IgG1 Fc) (mouse; human, UniProt Q3U4N7 21-163).
T4 construct: Only the predicted extracellular domain, without the transmembrane domain, was used; the signal peptide is residues 1-22; not shown: human IgG1 Fc, C-terminal
T4 sequence: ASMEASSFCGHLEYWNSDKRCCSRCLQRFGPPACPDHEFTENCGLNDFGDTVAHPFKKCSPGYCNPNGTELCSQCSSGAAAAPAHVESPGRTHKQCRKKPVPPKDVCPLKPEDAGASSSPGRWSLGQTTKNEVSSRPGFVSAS
The experiment is described as follows: SPR, mTMEM149-Fc captured on the chip. As for the experimental part:
(§3) Surface plasmon resonance (SPR) was run on a BiaCore 3000 (GE healthcare, Piscataway, N.J.) at 25° C. using anti-human IgG F(ab′)₂ (Jackson Immunoresearch, West Grove, Pa.) amine-coupled to BiaCore CM5 sensor chips. For kinetic analysis of protein interactions, Fc-fusion proteins at 25 μg/ml were first captured onto sensor chips by injecting them for 3 min at 5 μl/min. Then, test proteins diluted to their indicated concentrations in HBS-P buffer (0.01 M Hepes, pH 7.4 0.15 M NaCl 0.005% Surfactant P20) were injected for 3 min at 30 μl/min. Dissociation in HBS-P buffer alone was then measured at a flow rate of […]. Sensor chips surfaces were regenerated by injecting 10 mM glycine pH 1.5 for 30 s after each cycle. Kinetic parameters were determined by fitting the data to a 1:1 Langmuir model using the Biacore 3000 evaluation software (GE Healthcare).

The target in experiment [6] is TNFα (UniProt P01375 77-233). Description: SPR screen of TNF-like ligands. As for the experimental part: as §3
For experiment [7], the target named is T5, CD30L (UniProt P32971 63-234).
T5 sequence (looked up): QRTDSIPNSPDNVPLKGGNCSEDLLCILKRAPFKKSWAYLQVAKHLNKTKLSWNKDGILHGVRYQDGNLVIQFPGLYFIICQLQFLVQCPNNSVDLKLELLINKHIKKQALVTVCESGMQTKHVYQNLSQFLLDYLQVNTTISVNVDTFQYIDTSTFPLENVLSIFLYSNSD
Description: SPR screen of TNF-like ligands. As for the experimental part:
as §3

Experiment [8] concerns the target T6, CD27L (UniProt P32970 39-193, limits assumed).
T6 sequence (looked up): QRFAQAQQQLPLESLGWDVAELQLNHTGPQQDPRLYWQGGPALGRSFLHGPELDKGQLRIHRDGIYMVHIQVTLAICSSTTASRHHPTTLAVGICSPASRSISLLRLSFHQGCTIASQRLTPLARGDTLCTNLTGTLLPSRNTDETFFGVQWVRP
Description: SPR screen of TNF-like ligands. The procedure:
as §3

In experiment [9] the target is T7, EDA-A1 (UniProt Q92838 245-391, limits assumed).
T7 sequence (looked up): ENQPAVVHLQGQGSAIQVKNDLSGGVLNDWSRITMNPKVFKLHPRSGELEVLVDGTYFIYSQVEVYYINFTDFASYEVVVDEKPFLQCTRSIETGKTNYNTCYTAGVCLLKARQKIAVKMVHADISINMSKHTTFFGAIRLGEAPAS
The experiment is described as follows: SPR screen of TNF-like ligands. The procedure:
as §3

For experiment [10], the target named is T8, FasL (UniProt P48023 134-281).
T8 sequence (looked up): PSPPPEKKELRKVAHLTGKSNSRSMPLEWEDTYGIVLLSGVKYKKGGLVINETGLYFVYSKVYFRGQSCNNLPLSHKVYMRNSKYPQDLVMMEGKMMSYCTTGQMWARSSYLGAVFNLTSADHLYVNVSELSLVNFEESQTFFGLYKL
The experiment is described as follows: SPR screen of TNF-like ligands. As for the experimental part:
as §3

Experiment [11] concerns the target T9, TL1A (UniProt O95150 72-251).
T9 sequence (looked up): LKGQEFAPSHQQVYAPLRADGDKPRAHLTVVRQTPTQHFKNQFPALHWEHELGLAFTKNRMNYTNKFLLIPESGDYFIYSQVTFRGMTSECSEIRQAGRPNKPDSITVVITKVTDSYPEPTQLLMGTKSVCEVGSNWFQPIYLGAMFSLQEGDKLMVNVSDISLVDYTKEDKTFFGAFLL
The experiment is described as follows: SPR screen of TNF-like ligands. As for the experimental part: as §3

Experiment [12] concerns the target T10, RANKL (UniProt O14788 140-317, limits assumed).
T10 sequence (looked up): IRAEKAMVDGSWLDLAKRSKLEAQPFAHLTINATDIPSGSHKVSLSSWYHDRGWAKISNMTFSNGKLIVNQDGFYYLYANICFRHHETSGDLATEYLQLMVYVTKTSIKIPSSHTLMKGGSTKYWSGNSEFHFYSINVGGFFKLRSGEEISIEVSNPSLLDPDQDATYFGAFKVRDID
Description: SPR screen of TNF-like ligands. The procedure:
as §3

Experiment [13] concerns the target 4-1 BBL (UniProt P41273 71-254, limits assumed). The experiment is described as follows: SPR screen of TNF-like ligands. The procedure:
as §3

The target of experiment [14] is TNFSF14 (UniProt O43557 74-240, limits assumed). The experiment is described as follows: SPR screen of TNF-like ligands. As for the experimental part:
as §3

Experiment [15] concerns the target T11, APRIL (UniProt O75888 105-250, limits assumed).
T11 sequence (looked up): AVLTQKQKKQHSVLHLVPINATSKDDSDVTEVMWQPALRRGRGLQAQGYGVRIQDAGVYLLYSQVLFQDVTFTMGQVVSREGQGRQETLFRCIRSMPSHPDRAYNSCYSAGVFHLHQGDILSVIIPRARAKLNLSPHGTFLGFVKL
The experiment is described as follows: SPR screen of TNF-like ligands. The procedure: as §3

Experiment [16] concerns the target BAFF (UniProt Q9Y275 134-285, limits assumed). The experiment is described as follows: SPR screen of TNF-like ligands. The procedure: as §3
In experiment [17] the target is T12, LTα (UniProt P01374 35-205).
T12 sequence (looked up): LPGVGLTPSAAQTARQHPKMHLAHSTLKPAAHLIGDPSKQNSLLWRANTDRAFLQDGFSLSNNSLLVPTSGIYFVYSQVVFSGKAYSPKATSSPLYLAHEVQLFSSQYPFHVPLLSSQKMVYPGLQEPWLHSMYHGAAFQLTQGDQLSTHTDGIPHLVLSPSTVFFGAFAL
Description: SPR screen of TNF-like ligands. The procedure:
as §3

The target in experiment [18] is TRAIL (UniProt P50591 114-281). Description: SPR screen of TNF-like ligands. The procedure: as §3
TRAIL, sequence (P50591 114-281 limits assumed): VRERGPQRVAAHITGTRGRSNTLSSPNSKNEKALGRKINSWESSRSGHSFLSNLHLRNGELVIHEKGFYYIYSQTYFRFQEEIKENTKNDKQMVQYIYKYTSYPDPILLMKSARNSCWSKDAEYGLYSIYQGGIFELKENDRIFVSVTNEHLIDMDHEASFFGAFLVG

TNFα, sequence (P01375 77-233 limits assumed): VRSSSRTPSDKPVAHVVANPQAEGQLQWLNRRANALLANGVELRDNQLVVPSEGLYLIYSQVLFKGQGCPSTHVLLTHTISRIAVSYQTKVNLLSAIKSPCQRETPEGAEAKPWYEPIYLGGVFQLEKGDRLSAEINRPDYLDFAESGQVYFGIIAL
TNFSF14, sequence (O43557 74-240 limits assumed): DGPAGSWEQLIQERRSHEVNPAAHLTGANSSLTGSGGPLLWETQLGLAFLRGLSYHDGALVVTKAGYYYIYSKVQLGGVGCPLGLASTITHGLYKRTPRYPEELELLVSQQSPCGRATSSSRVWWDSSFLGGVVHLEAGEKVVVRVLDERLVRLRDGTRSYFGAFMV
BAFF, sequence (Q9Y275 134-285 limits assumed): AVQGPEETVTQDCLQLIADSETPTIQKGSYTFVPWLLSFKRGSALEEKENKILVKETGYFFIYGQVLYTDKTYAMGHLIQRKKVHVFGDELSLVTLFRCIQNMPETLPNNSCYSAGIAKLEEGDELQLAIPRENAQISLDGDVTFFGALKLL
4-1 BBL, sequence (P41273 71-254 limits assumed): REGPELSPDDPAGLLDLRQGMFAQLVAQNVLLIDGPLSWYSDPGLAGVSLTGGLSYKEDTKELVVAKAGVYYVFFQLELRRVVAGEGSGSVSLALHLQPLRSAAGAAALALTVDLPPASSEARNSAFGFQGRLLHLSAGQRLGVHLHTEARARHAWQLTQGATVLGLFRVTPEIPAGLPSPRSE

B1: FLAG-mIGFL (recombinant mouse IGFL with N-terminal FLAG epitope tag) (ligand, not shown: small tags and cut ends)
chain: RKISTFSGPGSWPCNPKCDGRTYNPSEECCVHDTILPFKRINLCGPSCTYRPCFELCCPESYSPKKKFIVKLKVHGERSHCSSSPISRNCKSNKIFHGEDIEDNQLSLRKKSGDQP
notes: also called mIGFL-FLAG; mIGFL1
On to B1, for which the “IC50 (read off the curve)” value in [1] was ~0.8 nM. For the same molecule, the binding result in experiment [2] and in experiment [3] was “no binding” throughout. Further, the equilibrium dissociation constant (Kd) (as a rule, a measure of binding affinity in units of concentration) in experiment [4] turned out to be 0.73 nM; in [5], 0.15 nM.

B2: TMEM149-Fc (human TMEM149 extracellular domain with C-terminal human IgG1 Fc) (Fc fusion)
chain: SQYCGRLEYWNPDNKCCSSCLQRFGPPPCPDYEFRENCGLNDHGDFVTPPFRKCSSGQCNPDGAELCSPCGGGAVTPTPAAGGGRTPWRCRERPVPAKGHCPLTPGNPGAPSSQERSSPASSIAWRTPEPVPQQAWPN
notes: also called recombinant human TMEM149-Fc; Fc-TMEM149; not shown: human IgG1 Fc, C-terminal
As to B2, the binding result in experiment [6], in [7], in experiment [8], in experiment [9], in experiment [10] and in [11] was “no binding” throughout. The binding result in experiment [12], in experiment [13], in [14], in [15], in [16] and in experiment [17] was “no binding” throughout. Also, in experiment [18], the binding result is given as “no binding”.

These data come from patent US20130302347A1 (Genentech, published 2013).
